Measured values published in article doi:10.1101/2022.01.18.476780.
Numbering of substitutions follows the chain as printed. Read-outs that look alike come from different tables or passages of the source.

B1: DNA 54RN (dsDNA)
DNA 1: TGGAGAATCCCGGTGCCGAGGCCGCTCAATTGGTCGTAGACAGCTCTAGCACCGCTTAAACGCACGTACGCGCTGTCCCCCGCGTTTTAACCGCCAAGGGGATTACTCCCTAGTCTCCAGGCCATTGTAATGCAAAAGCTATCGT
DNA 2: ACGATAGCTTTTGCATTACAATGGCCTGGAGACTAGGGAGTAATCCCCTTGGCGGTTAAAACGCGGGGGACAGCGCGTACGTGCGTTTAAGCGGTGCTAGAGCTGTCTACGACCAATTGAGCGGCCTCGGCACCGGGATTCTCCA
B2: DNA 62N (dsDNA)
DNA 1: TGGAGAATCCCGGTGCCGAGGCCGCTCAATTGGTCGTAGACAGCTCTAGCACCGCTTAAACGCACGTACGCGCTGTCCCCCGCGTTTTAACCGCCAAGGGGATTACTCCCTAGTCTCCAGGCACTTTTGCATTACAATGTATCGT
DNA 2: ACGATACATTGTAATGCAAAAGTGCCTGGAGACTAGGGAGTAATCCCCTTGGCGGTTAAAACGCGGGGGACAGCGCGTACGTGCGTTTAAGCGGTGCTAGAGCTGTCTACGACCAATTGAGCGGCCTCGGCACCGGGATTCTCCA
B3: sDNAF (dsDNA)
DNA 1: GACTCTTTGTTTGGC
DNA 2: GCCAAACAAAGAGTC
B4: DNA 2RN (dsDNA)
DNA 1: TGGAGAATCCCGGTGCCGAGGCCGCTCAATTGGTCGTAGACAGCTCTAGCACCGCTTAAACGCACGTACGCATTGTAATGCAAAATTTAACCGCCAAGGGGATTACTCCCTAGTCTCCAGGCACGTGTGGTTACGAGGCTATCGT
DNA 2: ACGATAGCCTCGTAACCACACGTGCCTGGAGACTAGGGAGTAATCCCCTTGGCGGTTAAATTTTGCATTACAATGCGTACGTGCGTTTAAGCGGTGCTAGAGCTGTCTACGACCAATTGAGCGGCCTCGGCACCGGGATTCTCCA
B5: DNA 601* (dsDNA)
DNA 1: B4 DNA 1 with A72G, T73C, A77C, A78C, T79C, G80C, A82G, A83C, A84G, A85T
DNA 2: B2 DNA 2 with C7G, A8C, T9C, G11C, T12G, A13T, T15A, G16C, A19C, A21C
B6: DNA 54RF (dsDNA)
DNA 1: TGGAGAATCCCGGTGCCGAGGCCGCTCAATTGGTCGTAGACAGCTCTAGCACCGCTTAAACGCACGTACGCGCTGTCCCCCGCGTTTTAACCGCCAAGGGGATTACTCCCTAGTCTCCAGGCCTTTGTTTGGATGCTAATATCGT
DNA 2: ACGATATTAGCATCCAAACAAAGGCCTGGAGACTAGGGAGTAATCCCCTTGGCGGTTAAAACGCGGGGGACAGCGCGTACGTGCGTTTAAGCGGTGCTAGAGCTGTCTACGACCAATTGAGCGGCCTCGGCACCGGGATTCTCCA
B7: DNA 62F (dsDNA)
DNA 1: TGGAGAATCCCGGTGCCGAGGCCGCTCAATTGGTCGTAGACAGCTCTAGCACCGCTTAAACGCACGTACGCGCTGTCCCCCGCGTTTTAACCGCCAAGGGGATTACTCCCTAGTCTCCAGGATTAGCATCCAAACAAAGTATCGT
DNA 2: ACGATACTTTGTTTGGATGCTAATCCTGGAGACTAGGGAGTAATCCCCTTGGCGGTTAAAACGCGGGGGACAGCGCGTACGTGCGTTTAAGCGGTGCTAGAGCTGTCTACGACCAATTGAGCGGCCTCGGCACCGGGATTCTCCA
B8: DNA 27F (dsDNA)
DNA 1: TGGAGAATCCCGGTGCCGAGGCCGCTCAATTGGTCGTAGACAGCTCTAGCACCGCTTAAACGCACGTACGCGCTGTCCCCCGCGTTATTAGCATCCAAACAAAGACTCCCTAGTCTCCAGGCACGTGTGGTTACGAGGCTATCGT
DNA 2: ACGATAGCCTCGTAACCACACGTGCCTGGAGACTAGGGAGTCTTTGTTTGGATGCTAATAACGCGGGGGACAGCGCGTACGTGCGTTTAAGCGGTGCTAGAGCTGTCTACGACCAATTGAGCGGCCTCGGCACCGGGATTCTCCA

Columns and labels:
Sox2 HMG DBD WT [1] = molecular target: T1, Sox2 HMG DBD WT (human, UniProt P48431 39-118); test: EMSA
[2] = molecular target: Oct4 DBD (POUS-linker-POUHD) (UniProt Q01860 133-296); test: EMSA
Sox2 HMG DBD WT [3] = molecular target: T1, Sox2 HMG DBD WT; test: NMR
Sox2 HMG Y72A = Sox2 HMG Y72A (human, UniProt P48431 39-118, Y108A); test: NMR
Sox2 HMG DBD WT [4] = molecular target: T1, Sox2 HMG DBD WT; test: NMR; remark: listed apart in the source

T1 sequence (P48431 39-118): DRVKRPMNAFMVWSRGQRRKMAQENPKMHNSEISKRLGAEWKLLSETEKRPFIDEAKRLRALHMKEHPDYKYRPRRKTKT
Oct4 DBD (POUS-linker-POUHD), sequence (Q01860 133-296): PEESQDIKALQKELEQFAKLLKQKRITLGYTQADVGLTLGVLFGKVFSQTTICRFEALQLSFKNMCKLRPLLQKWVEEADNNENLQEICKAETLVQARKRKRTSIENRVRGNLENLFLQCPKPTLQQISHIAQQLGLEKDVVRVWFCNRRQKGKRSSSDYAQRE
Sox2 HMG Y72A, sequence (P48431 39-118 Y108A): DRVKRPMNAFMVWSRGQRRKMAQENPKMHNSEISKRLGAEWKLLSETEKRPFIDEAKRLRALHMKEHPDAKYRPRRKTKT

Row | Binder | Kd (Sox2 HMG DBD WT [1]) [nM] | Kd [2] [nM] | also measured
1 | B1 | 3 ± 0.4 | 38 ± 4 | –
2 | B2 | 2.3 ± 0.3 | – | –
3 | B3 | – | – | binding result (Sox2 HMG DBD WT [3]): binds; binding result (Sox2 HMG Y72A): binds
4 | B4 | 3.7 ± 0.5 | – | –
5 | B5 | 8 ± 0.7 | 160 ± 20 | –
6 | B6 | 1.1 ± 0.2 | 32 ± 3 | –
7 | B7 | 2.1 ± 0.2 | – | –
8 | B8 | – | – | binding result (Sox2 HMG DBD WT [4]): binds
